Data: PMC10087246

Molecular target: SCO3201 (amino acids 21–216), TetR/AcrR-like regulator from Streptomyces coelicolor (Streptomyces coelicolor) (UniProt Q9KYU4)
Assay: SAXS

## SCO3201 (amino acids 21–216), TetR/AcrR-like regulator from Streptomyces coelicolor (from UniProt Q9KYU4 21-216) (domain or fragment)
  stoichiometry N: 2
